Patent US20040170622A1, “Methods and compositions for modulating XBP-1 activity” (President and Fellows of Harvard College, priority 2002, published 2004)

Assays:
XBP-1^−/− B cells = experiment: Ig production by retrovirally transduced XBP-1-/- primary B cells (ELISA); format: cell-based, mouse; settings: LPS 10 μg/ml 72 h
Description: (§1) Assays to measure immunoglobulin or cytokine levels in culture supernatants were performed as described (e.g., Hodge et al., 1996 Immunity. 4:397-405 or Science. 1996 274:1903-5).
(§2) The XBP-1 cDNAs for the unspliced (XBP-1u/s) and the spliced (XBP-1s) forms were PCR-amplified from the total RNA of untreated and tunicamycin treated NIH3T3 cells, respectively, with a primer set (5′-[…]-3′ (SEQ ID NO: 7) and 5′-[…]-3′) (SEQ ID NO: 8). XBP-1u form was generated by a PCR-based mutagenesis from XBP-unspliced/s cDNA so that the two G residues at position 532 and 535 were changed to A without changing amino acid sequences in the XBP-1u open reading frame. Numbers are based on the sequences from gene bank database (NM_013842 [gi:13775155]). These XBP-1 cDNAs were inserted into the GFP-RV retroviral vector by using blunt end ligation (Sambrook et al., 1989). EFFECTENE transfection (Quiagen) was used to introduce the DNA into the Phoenix cell line as described by manufacturer (e.g., Reimold et al., 2001 Nature. 412:300-7 or Int Immunol. 2001 13:241-8). Viral supernatants were harvested after 48 hours and frozen at −80° C. for later use. B cells were purified from mouse spleens using CD43 depletion or positive selection with B220+ magnetic beads as described by the manufacturer (MidiMacs, Miltenyi Biotech). B cell purity was generally near 95% as confirmed by flow cytometry. The B cells (10^6 cells /ml) were then activated in culture with LPS 10 μg/ml and F (ab′)2 anti-IgM (5 μg/ml Southern Biotechnology Associates Inc.) for 24 hours. The 1 ml of activated B cells (10^6 cells/ml) were mixed with 4 μg of polybrene and 1 ml of virus-containing supernatant and spun at 1000 g for 45 minutes at 24° C. Cells were incubated for 24-36 h at 37° C. and then GFP+ cells were flow sorted and returned to culture with and without stimulation.
The effects of these three different forms of XBP-1 on Ig secretion were compared in wild type and XBP-1^−/− B cells. In vitro activated splenic B cells were transduced using retroviruses expressing bicistronic mRNA encoding XBP-1u/s, XBP-1s, XBP-1u or control GFP. In FIGS. 5(A) and (B) purified B cells from wt and XBP-1^−/− mice were activated in culture with LPS 10 μg/ml and F (ab′)2 anti-IgM (5 μg/ml) for 24 hours. Retroviral transduction with GFP alone (GFP-Rv), XBP-1u/s (XBP-1u/s GFP Rv), XBP-1s (XBP-1s GFP Rv) or XBP-1u (XBP-1u GFP Rv) of activated B cells was performed. Cells were incubated for 24-36 h at 37° C. and then GFP+ cells were flow sorted and then returned to culture with LPS stimulation (10 μg/ml) for 72 h. IgM panel(A) and IgG2b panel (B) production analyzed by ELISA from culture supernatants of stimulated B cells. Experiments were done at least three times and standard deviation is shown.

XBP-1s = experiment: UPRE-luciferase reporter in NIH3T3 cells; format: cell-based
Description: (A) Ubiquitination of XBP-1 in HeLa cells were cotransfected with XBP-1u and His-tagged ubiquitin expression plasmids. (B) Degradation rates of XBP-1u and XBP-1s proteins were determined by pulse labeling J558 cells with ^35S Met/Cys for 1 hr and chasing for the indicated times. (C) Effect of XBP-1u on XBP-1s dependent UPRE activation in PI-treated NIH3T3 cells with 8-fold excess of XBP-1u plasmids. Transfected cells were treated with MG-132 for 16 hrs before harvesting for luciferase assays. Values represent fold induction of activity compared to the reporter alone after normalizing to Renilla. (D) Generation and expression of lysine to arginine XBP-1u mutants. Two or three lysine residues in the C-terminus of XBP-1u were replaced by arginine to generate XBP-1uKK (235, 252) and XBP-1uKKK(146, 235, 252) by site-directed mutagenesis. dn-XBP contains the N-terminal 188 aa of XBP-1u. Western blot analysis was performed with NIH3T3 extracts transfected with the indicated plasmids. E) Inhibition of XBP-1 dependent activation of the UPRE reporter in NIH 3T3 cells by XBP-1u lysine to arginine mutants.
Two or three lysine residues in the C-terminus of XBP-1u were replaced by arginines to generate XBP-1uKK (K235R, K252R) and XBP-1uKKK(K146R, K235R, K252R) by site-directed mutagenesis (Iwakoshi et al.2003 Nature Immunology 4: 321-329). dn-XBP contains the N-terminal 188 aa of XBP-1u. NTH3T3 cells were transfected by using the Lipofectamine2000 reagent as recommended by the manufacturer (Invitrogen, Carlsbad, Calif.) with indicated amount of UPRE (UPR element) reporter (Wang et al. 2000 J Biol Chem 275: 27013-27020) and various effector plasmids. Cells were treated for 16 hours before harvest in certain experiments. Cells were lysed in passive lysis buffer for dual luciferase assays according to the manufacturer's protocol (Promega, Madison, Wis.).

XBP-1 = experiment: XBP-luciferase reporter in NIH3T3 cells; format: cell-based; settings: in the presence of 5 uM MG-132; with unspliced XBP-1 (41.9 without)
Description: The fold induction of luciferase was measured in NIH3T3 cells bearing XBP-luciferase. The constructs included four copies of the XBP-1 target sequence TGGATGACGTGTACA (SEQ ID NO: 9) fused to the minimal promoter of the mouse RANTES gene (Clauss et al. Nucleic Acids Research 1996. 24:1855) or five copies of the ATF6/XBP-1 target […] (SEQ ID NO: 10) and comprising −53/+45 of the cfos promoter (J. Biol. Chem. 275:27013). In the presence of 5 uM MG-132, the presence of unspliced XBP-1 inhibits the fold induction of luciferase from 41.9 to 5.8. Thus, in the presence of proteasome inhibitors, the unspliced protein blocks the function of the spliced protein.

IL-6 = IL-6 production by retrovirally transduced wt and XBP-1-/- B cells (ELISA, Northern blot); format: cell-based, murine; settings: wild type and XBP-1-/- cells
Description: as §1, §2
In human multiple myeloma cells, XBP-1 was induced by IL-6 treatment and implicated in the proliferation of malignant plasma cells (Wen et al., 1999). However, no role for IL-6 in upregulating XBP-1 transcripts or in mediating splicing of XBP-1 RNA in mature B cells has been described (FIG. 6A). The ability of XBP-1 to induce IL-6 production in wt and XBP-1^−/− primary B cells was tested. As described above, in vitro activated murine splenic B cells were transduced using retroviruses expressing bicistronic mRNA for XBP-1u/s, XBP-1s, XBP-1u and control GFP. After cell sorting, GFP^+ cells were stimulated with LPS and assayed for cytokine production after 72 h. In FIG. 6 panel (A) purified B cells from wt and XBP-1^−/− mice were activated in culture with LPS 10 μg/ml and F(ab′)2 anti-IgM (5 μg/ml ) for 24 hours. Retroviral transduction with GFP alone (GFP-Rv), XBP-1u/s (XBP-1 u/s GFP Rv), XBP-1s (XBP-1s GFP Rv) or XBP-1u (XBP-1u GFP Rv) of activated B cells was performed. Cells were incubated for 24-36 h at 37° C. and then GFP+ cells were flow sorted and then returned to culture with LPS stimulation (10 μg/ml) for 72 h. Cytokine production was analyzed by ELISA from culture supernatants of stimulated B cells. Experiments were done at least three times and standard deviation is shown. In panel (B) Total RNAs were prepared from stimulated B cells above and XBP-1 mRNA levels were determined by Northern blot analysis with γ-actin control

B1: XBP-1u: murine XBP-1 with point mutations at loop positions −1 and +3; yields only unspliced 33 K protein (protein)
chain: MVVVAAAPSAATAAPKVLLLSGQPASGGRALPLMVPGPRAAGSEASGTPQARKRQRLTHLSPEEKALRRKLKNRVAAQTARDRKKARMSELEQQVVDLEEENHKLQLENQLLREKTHGLVVENQELRTRLGMDTLDPDEVPEVEAKGSGVRLVAGSAESAALRLCAPLQQVQAQLSPPQNIFPWTLTLLPLQILSLISFWAFWTSWTLSCFSNVLPQSLLVWRNSQRSTQKDLVPYQPPFLCQWGPHQPSWKPLMNSFVLTMYTPSL
XBP-1^−/− B cells
  secretion of IgG2b compared to control cells: unable to increase IgG secretion
  secretion of IgM compared to control cells: unable to increase IgM secretion
XBP-1s; in the absence of treatment
  UPRE reporter activity: but not XBP-1u, greatly increased reporter activity
XBP-1s; in the presence of MG-132, 16 hrs, 8-fold excess of XBP-1u plasmid
  effect on transactivation of UPRE reporter by XBP-1s: significantly suppressed transactivation of the reporter by XBP-1s
XBP-1
  fold induction of luciferase: 5.8
IL-6
  IL-6 amounts expressed: moderate amounts of IL-6
